According to patent publication US12320801B2, “Methods to spatially profile protease activity in tissue and sections” (Massachusetts Institute of Technology, priority 2017, dated 2025):
Read-outs that look alike come from different tables or passages of the source. Non-standard residues stand in square brackets, D forms with d. Primed or numbered codes have the meaning given here. No end group written: not given here. *: point of attachment. 5FAM = O=C1OC2(c3ccc(O)cc3Oc3cc(O)ccc32)c2ccc(C(=O)*)cc21; CPQ2 = quencher on the Lys side chain; PEG2′ = polyethylene glycol linker

Tests used:
thrombin = molecular target: T1, thrombin (Homo sapiens, UniProt P00734); test: In vitro recombinant protease assay: cleavage of nanoparticle-presented FRET substrate by thrombin; type: biochemical; conditions: for cleavage velocity (V) by thrombin: 6 μM substrate
T1 construct: purchased Haematologic Technologies
Protocol: In some embodiments, surface presentation of peptide substrates allows tuning of specificity between on- and off-target proteolytic cleavage rates of the substrate (e.g., MMP9 substrate). The cleavage kinetics of an MMP9 peptide substrate (PLGVRGK; SEQ ID NO: 15), flanked by a fluorescence resonance energy transfer (FRET) pair, at varying distances from the nanoparticle core (FIG. 3A) were tested. For this substrate, the rate of cleavage by MMP9 increased with increasing presentation distance (tether length) for all the substrate concentrations tested (0.5, 1.0, 2.0, 4.0 and 6.0 μM); as an example, cleavage velocity (V) increased from 0.24 to 0.96 nM s^−1 at 6 μM (FIG. 3B). Unexpectedly, this phenomenon was not generalizable across enzymes. For example, cleavage rates by the serine protease, thrombin, decreased with increasing presentation distance when the same substrate was tested (e.g., V at 6 μM of substrate decreased from 0.29 to 0.01 nM s^−1; FIG. 3C). Nor was it generalizable across substrates. […] The presentation of the MMP9 substrate on the ABNs described in this example exploited the increased on-target and decreased off-target protease cleavage that occurs for long tether lengths.
Nanoparticles coupled with intramolecularly quenched peptide substrates were reacted with recombinant proteases to identify cleavage velocities. NPs were mixed with 1% (w/v) BSA (Sigma) and incubated with recombinant proteases (MMP-9, Enzo Life Sciences; thrombin, Haematologic Technologies) in a final volume of 50 μl in enzyme-specific buffers (MMP9 buffer: 50 mM Tris, 150 mM NaCl, 5 mM CaCl2), 1 μM ZnCl2, pH 7.5; thrombin: PBS) in a 384-well plate for time-lapse fluorimetry to measure dequenching at 37° C. (SpectroMax Gemini EM microplate reader). Michaelis-Menten constants were determined by assessing initial cleavage velocities at different substrate concentrations (Prism 5.0, GraphPad). The final MMP-9 concentration was 100 nM and the final thrombin concentration was 7 nM.

matrix-metalloprotease = test: Cleavage of MMP9 substrate by OVCAR-8 conditioned media with and without MMP inhibitor; type: biochemical, human
mouse MMP9 = mouse MMP9 (Mus musculus, UniProt P41245); test: Cleavage of MMP9 substrate by mouse MMP9; type: biochemical
Text: FIGS. 14A-14B show iRGD ABNz characterization.
Receptor expression on tumors varies by tumor type and patient. In this example, another ABN was produced using the tumor-penetrating ligand, iRGD (CRGDKGPDC; SEQ ID NO: 2). This peptide engages the same active-internalization pathway as LyP-1, but binds to αvβ3 or αvβ5 integrin heterodimers as its primary receptor, which are ectopically overexpressed in a large subset of cancers (FIG. 12A). The tumor-targeting peptides iRGD and LyP-1 were bound to ABNs and administered to an immunocompetent mouse model of colorectal liver metastasis (CLM), induced via an intrasplenic injection of p32-negative, integrin-positive and NRP-1-positive MC-26 cells (FIG. 12B-12C and FIGS. 13A-13C). MC-26 cells are derived from a mouse colorectal cancer line and secrete MMP9, which can be detected in the tumor nodules as well as in the tumor-adjacent liver, but not in non-tumor-bearing liver lobes (FIG. 12D). The stoichiometries for substrate conjugation on iRGD ABNs were similar to those used on the LyP-1 ABNs (FIG. 14A). […] This was consistent in the model of orthotopic ovarian cancer (FIG. 15D).

MMP9 = molecular target: T2, MMP9 (Homo sapiens, UniProt P14780); test: In vitro recombinant protease assay: cleavage of nanoparticle-presented FRET substrate by MMP9; type: biochemical; conditions: 6 μM substrate
T2 construct: purchased Enzo Life Sciences
Protocol: In some embodiments, surface presentation of peptide substrates allows tuning of specificity between on- and off-target proteolytic cleavage rates of the substrate (e.g., MMP9 substrate). The cleavage kinetics of an MMP9 peptide substrate (PLGVRGK; SEQ ID NO: 15), flanked by a fluorescence resonance energy transfer (FRET) pair, at varying distances from the nanoparticle core (FIG. 3A) were tested. For this substrate, the rate of cleavage by MMP9 increased with increasing presentation distance (tether length) for all the substrate concentrations tested (0.5, 1.0, 2.0, 4.0 and 6.0 μM); as an example, cleavage velocity (V) increased from 0.24 to 0.96 nM s^−1 at 6 μM (FIG. 3B). Unexpectedly, this phenomenon was not generalizable across enzymes. For example, cleavage rates by the serine protease, thrombin, decreased with increasing presentation distance when the same substrate was tested (e.g., V at 6 μM of substrate decreased from 0.29 to 0.01 nM s^−1; FIG. 3C). Nor was it generalizable across substrates. […]
Nanoparticles coupled with intramolecularly quenched peptide substrates were reacted with recombinant proteases to identify cleavage velocities. […] (SpectroMax Gemini EM microplate reader). Michaelis-Menten constants were determined by assessing initial cleavage velocities at different substrate concentrations (Prism 5.0, GraphPad). […]

OVCAR-8 tumor nodules = test: Blood biomarker HE4 ELISA in orthotopic OVCAR-8 ovarian cancer model; type: in vivo, mouse
Protocol: The ability of ABNs to: (1) detect low-burden ovarian cancer and (2) outperform a clinical blood biomarker were tested. Detection by ABNs was compared to the blood biomarker HE4, as OVCAR-8 cells produce relatively high levels of this protein, on a par with four other human ovarian cancer cell lines (FIGS. 10B-10C). […] This threshold of sensitivity is critical, as clinically approved imaging modalities can typically only resolve individual tumor nodules greater than 5 mm in diameter. Additionally, it has been estimated that to decrease serous ovarian cancer mortality by 50% with an annual screen, a test would have to be sensitive to tumors of <5 mm. […] It was confirmed that the tumor nodule retrieval methodology described in this example accounted for greater than 80% of the tumor burden by measuring luminescence pre- and post-resection (FIGS. 11D-11G). The tumor burden remaining can be attributed to uncollected macroscopic and microscopic lesions.
To generate an orthotopic model of human ovarian cancer, three- to four-week-old female NCr nude mice were injected intraperitoneally with 2×10^6 OVCAR-8 cells expressing firefly luciferase. Tumor burden was measured via luminescence using an in vivo imaging system (IVIS, PerkinElmer). Each mouse was sacrificed and the tumors were retrieved from all organs in the peritoneal space. Tumors were collected on a glass slide and scanned on a LI-COR Odyssey with 169 μm resolution. Widths and lengths were measured with ImageJ and tumor volume was calculated as described above for subcutaneous tumors. The reported tumor volumes for each group are the average of ten mice. Before tumor induction, urine measurements were performed by injecting mice with 0.5 μM LyP1 ABNs. Approximately 200 μl of blood was collected and spiked with EDTA to a final concentration of 5 mM, and the blood cells were pelleted. Plasma was stored at −20° C. prior to HE4 quantification. HE4 levels were measured using the HE4 quantikine ELISA kit.

T2 sequence (P14780 94-707): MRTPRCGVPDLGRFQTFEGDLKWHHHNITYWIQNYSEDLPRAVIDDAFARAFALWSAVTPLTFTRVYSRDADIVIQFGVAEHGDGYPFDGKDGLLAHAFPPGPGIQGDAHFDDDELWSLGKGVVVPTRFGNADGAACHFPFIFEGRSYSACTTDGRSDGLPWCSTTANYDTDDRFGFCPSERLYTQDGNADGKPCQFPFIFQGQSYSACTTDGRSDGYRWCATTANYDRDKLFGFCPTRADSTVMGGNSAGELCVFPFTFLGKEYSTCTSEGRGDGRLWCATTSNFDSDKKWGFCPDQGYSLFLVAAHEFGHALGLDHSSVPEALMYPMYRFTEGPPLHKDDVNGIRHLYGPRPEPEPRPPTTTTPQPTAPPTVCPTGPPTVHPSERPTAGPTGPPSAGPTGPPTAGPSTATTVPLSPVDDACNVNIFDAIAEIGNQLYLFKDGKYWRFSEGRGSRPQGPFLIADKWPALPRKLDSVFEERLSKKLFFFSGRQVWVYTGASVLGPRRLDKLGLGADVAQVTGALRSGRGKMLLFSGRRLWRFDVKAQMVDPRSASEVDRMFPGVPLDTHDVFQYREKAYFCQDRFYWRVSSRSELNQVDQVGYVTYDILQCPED
Chain of mouse MMP9 (P41245 108-730): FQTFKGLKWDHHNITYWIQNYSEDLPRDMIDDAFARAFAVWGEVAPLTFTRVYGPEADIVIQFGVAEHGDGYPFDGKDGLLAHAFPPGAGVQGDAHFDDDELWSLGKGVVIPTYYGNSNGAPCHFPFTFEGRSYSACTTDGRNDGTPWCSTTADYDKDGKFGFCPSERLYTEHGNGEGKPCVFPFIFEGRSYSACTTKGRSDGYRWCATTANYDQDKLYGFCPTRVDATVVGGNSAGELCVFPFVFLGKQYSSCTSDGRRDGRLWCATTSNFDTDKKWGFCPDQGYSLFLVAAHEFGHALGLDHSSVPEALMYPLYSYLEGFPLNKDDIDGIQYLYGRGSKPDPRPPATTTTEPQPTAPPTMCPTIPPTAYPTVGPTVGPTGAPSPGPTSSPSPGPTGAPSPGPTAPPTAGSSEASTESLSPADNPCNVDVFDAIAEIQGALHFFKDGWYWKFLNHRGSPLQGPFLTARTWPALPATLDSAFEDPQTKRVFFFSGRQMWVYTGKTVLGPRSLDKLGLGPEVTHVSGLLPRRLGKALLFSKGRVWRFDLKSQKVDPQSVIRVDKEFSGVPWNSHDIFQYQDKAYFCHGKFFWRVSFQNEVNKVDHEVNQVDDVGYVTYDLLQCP

Molecule: 5-FAM-GGfPRSGGGK(CPQ2)-PEG2-C [thrombin-selective substrate]
- optimal presentation length for thrombin cleavage (thrombin; varying linker lengths on nanoparticle surface): optimally presented at an intermediate length

Molecule: CNC(=O)[C@@H](NC(=O)[C@H](CC(C)C)[C@H](O)C(=O)NO)C(C)(C)C [marimistat]
- inhibition of cleavage of MMP9 substrate by OVCAR-8 conditioned media (matrix-metalloprotease): can be inhibited
- inhibition of cleavage of MMP9 substrate by OVCAR-8 conditioned media (matrix-metalloprotease; listed as Marimistat): can inhibit a significant portion of the cleavage

Molecule: 5-FAM-GGPLGVRGKK(CPQ2)-PEG2-C (5FAM-GGPLGVRGKK(CPQ2)[PEG2′]C) [MMP9 peptide substrate, MMP9 peptide substrate (PLGVRGK) flanked by a FRET pair, presented on nanoparticle surface at varying PEG tether lengths]
- cleavage by mouse MMP9 (mouse MMP9): readily able to cleave
- cleavage velocity (V) by MMP9 (MMP9; longest presentation distance (tether length)): 0.96 nM/s
- cleavage velocity (V) by MMP9 (MMP9; shortest presentation distance (tether length)): 0.24 nM/s
- cleavage velocity (V) by thrombin (thrombin; longest presentation distance): 0.01 nM/s
- cleavage velocity (V) by thrombin (thrombin; shortest presentation distance): 0.29 nM/s

B1: HE4: human epididymis protein, clinical blood biomarker used as comparator diagnostic, measured by ELISA (protein, UniProt Q14508 31-124, looked up)
WAP four-disulfide core …: EKTGVCPELQADQNCTQECVSDSECADNLKCCSAGCATFCSLPNDKEGSCPQVNINFPQLGLCRDQCQVDSQCPGQMKCCRNGCGKVSCVTPNF
- limit of detection (tumor volume) (OVCAR-8 tumor nodules; 3 weeks): 88 mm^3
- ROC-AUC (OVCAR-8 tumor nodules; three weeks): 0.93
- ROC-AUC (OVCAR-8 tumor nodules; two weeks): 0.51
